From patent publication US20230322857A1, “RECOMBINANTLY ENGINEERED POLYPEPTIDES CAPABLE OF RECYCLING NONCANONICAL COFACTORS” (The Regents of the University of California, priority 2022, published 2023)

Columns and labels:
[1] = Steady-state kinetics of TS-PTDH variants with NADP^+; type: biochemical; settings: 100 mM MOPS, pH 7.25, 10 mM sodium phosphite, varied cofactor concentrations; n = 3
[2] = Steady-state kinetics of TS-PTDH variants with NMN^+; type: biochemical
[3] = TS-PTDH total turnover number determination (NMN(H) cycling with XenA, KIP to levodione); type: biochemical; settings: averaged over the 16-day reaction
Protocol: TS-PTDH Total Turnover Number Determination. Reactions to determine the TTN of TS-PTDH LY-13 (see FIG. 10B) were performed at 1 mL volumes in 2 mL glass vials secured with a PTFE-lined screw cap. Reactions were incubated without shaking at 30° C. Reaction buffer was comprised of 200 mM MOPS at pH 7.5, 100 mM sodium phosphite, 6 mM NMN^+, and 33 mM ketoisophorone (KIP). To initiate the reaction, purified TS-PTDH LY-13 and XenA were spiked into the reaction mixture to a final concentration of 0.25 μM and 18.8 μM, respectively. The reactions were sampled intermittently by removing 50 μL of reaction mixture and mixing with 100 μL of ethyl acetate containing 200 mg/L1-octanol. Samples were vortexed, centrifuged, and the ethyl acetate fraction was transferred to a GC vial for GC-FID analysis. GC-FID analysis for KIP biotransformation efficiency was performed on an Agilent 6850 GD using an Agilent DB-WAX column (30 m×0.56 mm×1 μm). Helium was used as a carrier gas. The inlet and detector were held at 250 and 260° C., respectively. 5 μL of sample was injected with a 2:1 split ratio. […] TTN was calculated by the moles of levodione produced divided by the moles of LY-13 supplied to the reaction system. Total turnover frequency was determined by dividing TTN by the total reaction time of 384 h. Levodione concentration was determined by correlating sample response to a standard curve of known values.

E. coli SHuffle strain = experiment: Recapitulation of growth restoration with TS-PTDH variants in SHuffle strain; type: cell-based, Escherichia coli; settings: spotted onto agar selection plates
Protocol: Selection of TS-PTDH Library. A total of 50 μL pre-made SHuffle/pLZ311 or SHuffle/pLZ312 electro-competent cells were transformed with 2 μL TS-PTDH A155N-E175-A176-L208 NNK library DNA (pLZ316) via electroporation as described above. After rescue in SOC media for 1 h, cultures were combined in 10 mL 2×YT with 10 g/L glucose, 0.5% arabinose, kanamycin and ampicillin. 0.2, or 1 μL of culture was immediately taken from the culture and plated on an 2×YT agar plates with kanamycin and ampicillin. The plate was incubated at 37° C. overnight, and the number of colonies formed was counted to estimate the library size. The liquid cultures were incubated at 37° C. with shaking for 10 h. Cells (1 mL) were washed 3 times and re-suspended in M9 Buffer. Targeted serial dilutions of cells were prepared in M9 buffer and 5 μL aliquots were dispensed in series on an agar plate of M9 selection media containing 0.5 mM diamide, 5 or 1 g/L yeast extract, 10 g/L glucose, 0.5% arabinose, 0.5 mM IPTG, 10 g/L sodium phosphite, kanamycin, ampicillin, and 5 mM NMN^+. Selection plates were incubated at 37° C., and photographs were taken to document growth progress. The independent transformants sampled was calculated as 2.4×10^6 and 2.5×10^6 colonies when plated on 5 and 1 g/L yeast extract, respectively. TS-PTDH and the template of the library, TS-PTDH A155N, were cultured in the same conditions as controls. The colonies were numbered by the order of appearance. The selected cells were re-streaked on fresh agar plate with identical media and incubated until single colonies formed on the plate. Variants that cannot forma single colony may be false positives. After extracting the plasmids from each re-streaked colony, the chosen TS-PTDH variants were amplified and moved into the pQElac vector containing a N-terminal 6×His tag for protein purification and characterization. […] 2 μL of a serial dilution of cells were deposited onto a growth selection plate and grown at 37° C.

[4] = 100 mM MOPS, pH 7.25, 10 mM sodium phosphite, varied cofactor concentrations, n = 3

B1: LY-13: phosphite dehydrogenase variant with A155N, E175A, A176F (SEQ ID NO: 6) (protein)
chain: MLPKLVITHRVHEEILQLLAPHCELITNQTDSTLTREEILRRCRDAQAMMAFMPDRVDADFLQACPELRVIGCALKGFDNFDVDACTARGVWLTFVPDLLTVPTAELAIGLAVGLGRHLRAADAFVRSGKFRGWQPRFYGTGLDNATVGFLGMGNIGLAMADRLQGWGATLQYHAFKALDTQTEQRLGLRQVACSELFASSDFILLALPLNADTLHLVNAELLALVRPGALLVNPCRGSVVDEAAVLAALERGQLGGYAADVFEMEDWARADRPQQIDPALLAHPNTLFTPHIGSAVRAVRLEIERCAAQNILQALAGERPINAVNRLPKANPAAD
[1]
  Km: 50 ± 10 µM
  NADP^+ kcat: 0.96 ± 0.02 s⁻¹
[2]; [4]
  Km: 620 µM
  NMN^+ kcat: 0.27 ± 0.01 s⁻¹
[2]; vs TS-PTDH
  increase in catalytic efficiency for NMN^+ compared to TS-PTDH (wild type enzyme): ~110 fold
[2]; vs parent enzyme TS-PTDH A155N
  increased catalytic efficiency (kcat/Km) for NMN^+ compared to TS-PTDH A155N: ~44 fold
[3]
  Total Turnover Frequency: ~117 turnovers per hour
E. coli SHuffle strain
  growth restoration, co-expression with NMNH-specific Gor Ortho: markedly improved growth restoration
E. coli SHuffle strain; listed as TS-PTDH LY-13
  growth restoration, co-expression with NMNH-specific Gor Ortho: improved growth compared to TS-PTDH A155N
